Earlier results as cited in article PMC4040926.

Biological target: SNARE complex (Rattus norvegicus) (UniProt P32851)
Assay: ITC

Chain of UniProt P32851 (P32851 whole entry, chain 1 of 3): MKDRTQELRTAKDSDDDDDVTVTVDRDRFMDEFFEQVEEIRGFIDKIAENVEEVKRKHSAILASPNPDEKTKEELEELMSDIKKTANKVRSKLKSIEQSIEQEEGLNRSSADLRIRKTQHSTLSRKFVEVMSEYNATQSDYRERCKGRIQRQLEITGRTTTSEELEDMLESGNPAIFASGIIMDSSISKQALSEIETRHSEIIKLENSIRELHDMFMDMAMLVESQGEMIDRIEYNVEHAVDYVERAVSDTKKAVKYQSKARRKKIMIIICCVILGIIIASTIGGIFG
Chain of UniProt P32851 (B2RAU4 whole entry, chain 2 of 3, further chain): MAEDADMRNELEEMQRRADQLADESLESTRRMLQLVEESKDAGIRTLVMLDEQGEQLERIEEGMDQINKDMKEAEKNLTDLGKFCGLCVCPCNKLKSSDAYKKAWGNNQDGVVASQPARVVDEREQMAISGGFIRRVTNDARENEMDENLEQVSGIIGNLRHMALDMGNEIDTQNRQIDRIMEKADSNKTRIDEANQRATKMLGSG
Chain of UniProt P32851 (P63044 2-116, chain 3 of 3, further chain): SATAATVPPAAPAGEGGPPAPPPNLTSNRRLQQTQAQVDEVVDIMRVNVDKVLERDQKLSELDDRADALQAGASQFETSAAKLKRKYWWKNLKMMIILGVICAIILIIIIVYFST

For Complexin-I 26-83 (from UniProt P63041), the Kd is given as 25.3 nM.
